Counter-ions that a name gives are not always drawn. Values belong to the molecule of their own block, whether it stands above or below them. Ends that are not written are not given here. * marks the point of attachment. Biotin = O=C1N[C@H]2[C@H](CS[C@H]2CCCCC(=O)*)N1
Legend:
Calreticulin (CRT) [1] = biological target: T1, Calreticulin (CRT) (Homo sapiens, UniProt P27797); assay: 1D 1H NMR ligand line broadening with CRT; […]-HSQC of ITGA4 peptide shows displacement from CRT; type: binding; parameters: gene CALR; Human CRT, His-tag fusion protein (pET-19b), expressed in E. coli
T1 sequence (P27797 18-417): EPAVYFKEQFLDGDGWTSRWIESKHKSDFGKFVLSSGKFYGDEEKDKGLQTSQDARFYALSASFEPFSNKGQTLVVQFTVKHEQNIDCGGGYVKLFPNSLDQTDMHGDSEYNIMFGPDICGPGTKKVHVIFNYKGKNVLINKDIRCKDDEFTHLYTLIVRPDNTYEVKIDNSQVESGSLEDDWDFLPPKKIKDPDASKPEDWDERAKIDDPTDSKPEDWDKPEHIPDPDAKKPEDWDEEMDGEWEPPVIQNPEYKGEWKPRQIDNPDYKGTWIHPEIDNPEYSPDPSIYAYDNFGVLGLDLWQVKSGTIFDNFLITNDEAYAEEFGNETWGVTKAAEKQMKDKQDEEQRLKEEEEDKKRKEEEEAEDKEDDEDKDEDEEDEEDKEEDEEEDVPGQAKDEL

Calreticulin (CRT) [2] = biological target: T1, Calreticulin (CRT); assay: cell-free plate assay of biotinylated ITGA peptide (KAGFFKR) binding to purified CRT; supported by GST-CRT pull-down; parameters: gene CALR
[3] = biological target: T2, CRT (>90% pure) used for surface plasmon resonance (human, UniProt P27797 18-417); assay: SPR
T2 chain: T1 sequence (P27797 18-417)

[4] = biological target: T2, CRT (>90% pure) used for surface …; assay: SPR
[5] = biological target: T3, Human CRT protein, His-tag fusion protein (pET-19b) (human, UniProt P27797 18-417); assay: NMR titration; two-dimensional 15N-HSQC, 4 μM 15N-ITGA4 with 4 μM CRT, 20 mM PB pH 5.5, 10% D2O, 303 K, 700 MHz; conditions: both partners purified
T3 construct: calreticulin (CRT), human; Surmise: pET-19b adds an N-terminal His tag; also called calreticulin; source: E. coli BL21, purified (Ni-NTA agarose, Superdex 75), >90% pure
T3 sequence (looked up): T1 sequence (P27797 18-417)

Molecule: CC1(C)CC(c2ccccc2N2CCN(CC3CC3)CC2)CC(C)(C)C1 [ER-339093-13, 1-(cyclopropylmethyl)-4-[2-(3,3,5,5-tetramethylcyclohexyl)phenyl] piperazine methanesulfonate]
1D 1H NMR ligand line broadening with CRT; 15N-HSQC of ITGA4 peptide shows displ (Calreticulin (CRT) [1]): notable line broadening of the ER-339093-13 signal was observed upon the addition of CRT

Molecule: CCCN1CCN(c2ccccc2C2CC(C)(C)CC(C)(C)C2)CC1 [ER-464195-01, 1-propyl-4-[2-(3,3,5,5-tetramethylcyclohexyl)phenyl] piperazine hydrochloride]
IC50 (Calreticulin (CRT) [2]): 170 nM

More lines, now with the values ahead:

koff [3]: 0.00388 s⁻¹ | Kd [4]: 250 nM
Molecule: Biotin-KAGFFKRQYKSILQEENRRDSWSYINSKSNDD [N-terminally biotinylated intracellular domain of the ITGA4 peptide]

binding result [5]: binds
B1: uniformly 15N-labeled intracellular domain of ITGA4 (domain or fragment)
chain: KAGFFKRQYKSILQEENRRDSWSYINSKSNDD
modifications: also: uniformly 15N-labeled
notes: intracellular domain of integrin α4 (ITGA4), cloned BamHI-EcoRI into pGEX-2T; Surmise: thrombin cleavage of a pGEX-2T fusion leaves a few residues of the vector at the N-terminus; also called 15N-ITGA4; ITGA4 peptide

Reference: PMC5958137, “Calreticulin and integrin alpha dissociation induces anti-inflammatory programming in animal models of inflammatory bowel disease” (Nature Communications, 2018)
